According to the Immune Epitope Database (IEDB):

Tests used:
HLA-A*02:01 [1] = experiment: IEDB peptide-MHC binding, purified MHC/competitive/fluorescence; ≥ and ≤ were set here for values at or beyond the usual limits of such assays
HLA-A*03:01 = experiment: IEDB peptide-MHC binding, purified MHC/direct/fluorescence; filed as Kd, often an IC50 or EC50 that approximates it; ≥ and ≤ were set here for values at or beyond the usual limits of such assays
HLA-A*11:01 = experiment: as above; conditions: source organism: Francisella tularensis subsp. holarctica LVS
HLA-A*02:01 [2] = experiment: as above
HLA-B*15:01 = experiment: as above; conditions: source organism: SARS-CoV1
HLA-A*02:02 = experiment: IEDB peptide-MHC binding, purified MHC/competitive/radioactivity; filed as Kd, often an IC50 or EC50 that approximates it; ≥ and ≤ were set here for values at or beyond the usual limits of such assays
HLA-A*02:03 = experiment: as above
HLA-A*02:06 = experiment: as above
HLA-A*69:01 = experiment: IEDB peptide-MHC binding, purified MHC/direct/fluorescence; filed as Kd, often an IC50 or EC50 that approximates it; ≥ and ≤ were set here for values at or beyond the usual limits of such assays
HLA-A*32:01 = experiment: IEDB peptide-MHC binding, purified MHC/competitive/radioactivity; filed as Kd, often an IC50 or EC50 that approximates it; ≥ and ≤ were set here for values at or beyond the usual limits of such assays
HLA-A*01:01 = experiment: IEDB peptide-MHC binding, purified MHC/direct/fluorescence; filed as Kd, often an IC50 or EC50 that approximates it; ≥ and ≤ were set here for values at or beyond the usual limits of such assays; conditions: source organism: Influenza A virus (A/chicken/Nanchang/7-010/2000(H3N6))
HLA-A*24:02 = experiment: IEDB peptide-MHC binding, purified MHC/competitive/radioactivity; filed as Kd, often an IC50 or EC50 that approximates it; ≥ and ≤ were set here for values at or beyond the usual limits of such assays
HLA-B*40:01 = experiment: IEDB peptide-MHC binding, purified MHC/direct/fluorescence; filed as Kd, often an IC50 or EC50 that approximates it; ≥ and ≤ were set here for values at or beyond the usual limits of such assays; conditions: source organism: Homo sapiens
[3] = source organism: Zaire ebolavirus
[4] = source organism: Vaccinia virus WR
[5] = source organism: SARS coronavirus Tor2
[6] = source organism: Dengue virus 2 Jamaica/1409/1983
[7] = source organism: Dengue virus 3 Martinique/1243/1999
[8] = source organism: Mammarenavirus brazilense
[9] = source organism: Bacillus anthracis
[10] = source organism: Yersinia pestis Antiqua
[11] = source organism: Mammarenavirus caliense

Row | Sequence | Kd (HLA-A*02:02; [4]) [nM] | Kd (HLA-A*02:03; [4]) [nM] | Kd (HLA-A*02:06; [4]) [nM] | also measured
1 | STASDTPSA | – | – | – | IC50 (HLA-A*02:01 [1]; [3]): 12200 nM
2 | AVYSICKFY | – | – | – | Kd (HLA-A*03:01; source organism: Francisella tularensis subsp. holarctica LVS): 297 nM; Kd (HLA-A*11:01): 708 nM
3 | ILGLPTQTV | – | – | – | Kd (HLA-A*02:01 [2]; source organism: SARS-CoV1): 402 nM; Kd (HLA-B*15:01): 1600 nM
4 | IKHVGLITC | – | – | – | IC50 (HLA-A*02:01 [1]; [4]): ≥ 622000 nM
5 | YLMCLSPLMA | – | – | – | Kd (HLA-A*02:02; [5]): 0.237 nM; Kd (HLA-A*02:03; [5]): 0.127 nM; Kd (HLA-A*02:06; [5]): 1.29 nM
6 | ILIDTSAWV | – | – | – | Kd (HLA-A*69:01; source organism: Mycobacterium tuberculosis): 429 nM
7 | IAGVAGLIT | – | – | – | IC50 (HLA-A*02:01 [1]; [3]): ≥ 205000 nM
8 | ITYWSRFTI | – | – | – | Kd (HLA-A*32:01; [4]): 2.48 nM
9 | DTGKKELAL | 116 | 156 | 14200 | –
10 | AGILKRWGTI | – | – | – | Kd (HLA-A*32:01; [6]): 8820 nM
11 | ISYGGGWRFQ | – | – | – | Kd (HLA-A*32:01; source organism: Dengue virus 1 Brazil/97-11/1997): ≥ 56400 nM
12 | KTALLIVSG | – | – | – | Kd (HLA-A*32:01; [7]): 6830 nM
13 | TQVKELGIA | 7220 | 52.2 | 55.6 | –
14 | RLFARTGLE | – | – | – | Kd (HLA-A*03:01; source organism: Burkholderia ambifaria AMMD): 748 nM
15 | SSEDLNGMI | – | – | – | Kd (HLA-A*01:01): ≥ 20000 nM
16 | TLLNETAKV | 246 | 83.1 | 11.1 | –
17 | KTQEPPQVA | – | – | – | Kd (HLA-A*02:01 [2]; source organism: Haemophilus influenzae): 7070 nM
18 | NINFNNSSII | 6640 | 13300 | ≥ 30100 | –
19 | GSTLAGVNV | – | – | – | IC50 (HLA-A*02:01 [1]; [3]): ≥ 95000 nM
20 | TIKESLLKET | 1580 | 149 | 87.2 | –
21 | DTCLLAISA | 4330 | 6450 | ≥ 25200 | –
22 | QWMTTEDMLT | – | – | – | Kd (HLA-A*24:02; [7]): 6100 nM
23 | IASSMKGENV | 751 | 3240 | 311 | –
24 | KAKQLCYCPA | 308 | 188 | 339 | –
25 | ITVGMLIYSM | 47.4 | 6110 | 97.1 | –
26 | EHAGVISVL | – | – | – | Kd (HLA-A*69:01; source organism: Homo sapiens): 4640 nM; Kd (HLA-B*40:01): 364 nM
27 | VISVIFYFI | 1.4 | 729 | 497 | –
28 | NINIEVKLFI | 12500 | 2050 | 2320 | –

Row | Sequence | Kd (HLA-A*02:02; [4]) [nM] | Kd (HLA-A*02:03; [4]) [nM] | Kd (HLA-A*02:06; [4]) [nM] | also measured
29 | RFGTSLLFL | – | – | – | Kd (HLA-A*24:02; source organism: Dengue virus 4 Dominica/814669/1981): 673 nM
30 | NSTLEVTEI | – | – | – | IC50 (HLA-A*02:01 [1]; source organism: Sudan ebolavirus): ≥ 97400 nM
31 | LLIHFLLSL | – | – | – | Kd (HLA-A*32:01; [4]): ≥ 52800 nM
32 | CTMERTNDLT | 4050 | 16100 | 1010 | –
33 | EDMLTVWNRV | – | – | – | Kd (HLA-A*32:01; [7]): 13600 nM
34 | NTKSDNIINI | ≥ 30800 | 1080 | ≥ 69800 | –
35 | AAIGKAWEEG | – | – | – | Kd (HLA-A*32:01; source organism: Dengue virus 1 Singapore/S275/1990): ≥ 69900 nM
36 | KALKINWYKK | – | – | – | Kd (HLA-A*32:01; source organism: Dengue virus 3 Singapore/8120/1995): 8040 nM
37 | KIILFQNNDI | 1610 | 2000 | 2170 | –
38 | NMDWRSLTQV | 100 | 17.4 | 1.69 | –
39 | FVYHPDRLK | – | – | – | Kd (HLA-A*03:01; source organism: Escherichia coli O157:H7): 46.7 nM
40 | NASKFVYVSV | 4550 | 8.57 | 823 | –
41 | KTNTKHCPKI | ≥ 33800 | 10900 | 234 | –
42 | NLHYWTTQD | – | – | – | IC50 (HLA-A*02:01 [1]; [3]): ≥ 124000 nM
43 | HGLFPQLSA | – | – | – | IC50 (HLA-A*02:01 [1]; [3]): 47900 nM
44 | SILGIGTVL | – | – | – | IC50 (HLA-A*02:01 [1]; source organism: Hepatitis C virus genotype 1): ≥ 100000 nM
45 | KCFGNTALA | – | – | – | Kd (HLA-A*02:02; [8]): 31 nM; Kd (HLA-A*02:03; [8]): 1090 nM; Kd (HLA-A*02:06; [8]): ≥ 77000 nM
46 | EQDGITYYL | – | – | – | Kd (HLA-A*02:01 [2]; [9]): ≥ 20000 nM; Kd (HLA-A*69:01; [9]): 12.5 nM
47 | SQGRGWFLL | – | – | – | Kd (HLA-A*02:01 [2]; [10]): 284 nM; Kd (HLA-A*69:01; [10]): ≥ 20000 nM
48 | MAGVEVRYI | 293 | 201 | 2050 | –
49 | KLDDTGKKEL | 101 | 139 | 5530 | –
50 | HLDGEVLSL | – | – | – | Kd (HLA-A*02:02; [5]): 65.9 nM; Kd (HLA-A*02:03; [5]): 131 nM; Kd (HLA-A*02:06; [5]): 160 nM
51 | GTGNIGETL | – | – | – | Kd (HLA-A*32:01; [6]): 8120 nM
52 | VLEKKVCAIT | 590 | 1240 | 1680 | –
53 | YMLFTKFFYL | – | – | – | Kd (HLA-A*02:02; [5]): 47.7 nM; Kd (HLA-A*02:03; [5]): 45.8 nM; Kd (HLA-A*02:06; [5]): 20.3 nM
54 | YNLSLSAAV | – | – | – | Kd (HLA-A*02:02; [11]): 867 nM; Kd (HLA-A*02:03; [11]): 1140 nM; Kd (HLA-A*02:06; [11]): 1660 nM
55 | WVMDTLNGI | 9.78 | 1.01 | 0.731 | –
